Measurements: publication PMC5349888, “Thyroid transcription factor FOXE1 interacts with ETS factor ELK1 to co-regulate TERT”

T1: ELK1-HA (human, UniProt P19419 1-428)
T1 sequence: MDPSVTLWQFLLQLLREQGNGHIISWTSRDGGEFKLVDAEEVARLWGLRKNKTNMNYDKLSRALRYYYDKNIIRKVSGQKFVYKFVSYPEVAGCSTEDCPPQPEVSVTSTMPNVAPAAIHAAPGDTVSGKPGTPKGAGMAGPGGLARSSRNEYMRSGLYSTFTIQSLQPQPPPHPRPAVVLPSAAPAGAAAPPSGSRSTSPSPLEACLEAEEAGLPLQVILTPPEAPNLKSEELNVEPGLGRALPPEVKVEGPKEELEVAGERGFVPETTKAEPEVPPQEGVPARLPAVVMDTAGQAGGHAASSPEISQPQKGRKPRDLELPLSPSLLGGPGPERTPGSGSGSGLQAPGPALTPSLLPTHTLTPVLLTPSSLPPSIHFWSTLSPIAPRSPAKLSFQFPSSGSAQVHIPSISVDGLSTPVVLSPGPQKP

T2: FOXE1-Flag;ELK1-HA (human;human, UniProt O00358;P19419 1-373;1-428, |)
T2 sequence 1: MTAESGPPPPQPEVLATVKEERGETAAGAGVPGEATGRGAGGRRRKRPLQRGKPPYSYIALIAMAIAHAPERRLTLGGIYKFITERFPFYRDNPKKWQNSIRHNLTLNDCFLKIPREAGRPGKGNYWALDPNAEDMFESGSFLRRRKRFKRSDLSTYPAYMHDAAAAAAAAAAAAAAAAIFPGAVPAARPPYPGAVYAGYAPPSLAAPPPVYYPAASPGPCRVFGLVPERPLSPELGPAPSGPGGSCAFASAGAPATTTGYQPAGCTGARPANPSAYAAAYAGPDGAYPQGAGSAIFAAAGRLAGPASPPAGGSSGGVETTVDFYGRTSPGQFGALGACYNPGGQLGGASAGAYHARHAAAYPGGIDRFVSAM
T2 sequence 2: T1 sequence

T3: FOXE1-Flag (human, UniProt O00358 1-373)
T3 sequence: T2 sequence 1

B1: TERT promoter probe (dsDNA)
DNA 1: CCCCGCCCCGTCCCGACCCCTCCCGGGTCCCCGGCCCAGCCCCCTCCGGGCCCTCCCAGCCCCTCCCCTTCCTTTCCGCGGCCCC
DNA 2: GGGGCCGCGGAAAGGAAGGGGAGGGGCTGGGAGGGCCCGGAGGGGGCTGGGCCGGGGACCCGGGAGGGGTCGGGACGGGGCGGGG
B2: TG promoter K region probe (dsDNA)
DNA 1: GAGGGAGTTCCTGTGACTAGCAGAGAAAACAAAGTGAGCCAC
DNA 2: GTGGCTCACTTTGTTTTCTCTGCTAGTCACAGGAACTCCCTC

Columns and labels:
[1] = biological target: T1, ELK1-HA; assay: EMSA; ELK1 alone; EMSA: 1 ug protein, 150 mM KCl, 50 ng/uL poly(dI-dC), 10% glycerol, 10 mM Tris pH 7.5, room temperature 30 min; 6% polyacrylamide gel; details: protein: recombinant; tags: HA (pCMV-HA-N); label: 5' biotin; blunt
[2] = biological target: T2, FOXE1-Flag;ELK1-HA; assay: EMSA; FOXE1 shifts only with ELK1 present; EMSA: 1 ug protein, 150 mM KCl, 50 ng/uL poly(dI-dC), 10% glycerol, 10 mM Tris pH 7.5, room temperature 30 min; 6% polyacrylamide gel; details: protein: recombinant;recombinant; tags: 3xFlag (p3XFlag-CMV-7.1);HA (pCMV-HA-N); copies: 1;1; label: 5' biotin; blunt
[3] = biological target: T3, FOXE1-Flag; assay: EMSA; positive control; EMSA: 1 ug protein, 150 mM KCl, 50 ng/uL poly(dI-dC), 10% glycerol, 10 mM Tris pH 7.5, room temperature 30 min; 6% polyacrylamide gel; details: protein: recombinant; tags: 3xFlag (p3XFlag-CMV-7.1); label: 5' biotin; blunt

Binder	binding result [1]	binding result [2]	binding result [3]
B1	binds	binds	
B2			binds
